Assays:
[1] = target: the molecule itself; assay: SEC-MALS and analytical ultracentrifugation; self-association (homotrimer)
[2] = target: the molecule itself; assay: X-ray crystal structure; self-association (homotrimer)
Method: The crystals (FIG. 8) were obtained from rhNaglu protein purified from culture media treated with mannosidase-I inhibitor, Kifunensine. Naglu Kif contains identical protein sequences as rhNaglu, but different glycosylation pattern. The crystals acquired of Naglu Kif were grown at pH=7.5 and the structure of Naglu Kif was solved at 2.4 Å resolution by X-ray crystallography. Naglu structure (FIG. 9) is identified as having three distinct domains, a N-terminal domain (Domain-I, aa 24-126) followed by a (a/(3)8 barrel domain containing the catalytic glutamates (Domain-II, aa 127-467) and an all helical C-terminal domain (Domain-III, aa 468-743). Similar domain structure has been observed for another Glycoside Hydrolase family-89 protein, cpGH89, a bacterial homolog of Naglu (Ficko-Blean E, et al., PNAS May 6, 2008 vol. 105 no. 18 6560-6565). The active site is at a cleft between domains II and III and the catalytic residues are identified as E316 and E446 located on domain II.

Protein	binding result [1]	binding result [2]
recombinant Naglu-IGFII fusion protein (enzyme, glycosylated; negative for M6P glycosylation, Secreted from HT1080 cells) DEAREAAAVRALVARLLGPGPAADFSVSVERALAAKPGLDTYSLGGGGAARVRVRGSTGVAAAAGLHRYLRDFCGCHVAWSGSQLRLPRPLPAVPGELTEATPNRYRYYQNVCTQSYSFVWWDWARWEREIDWMALNGINLALAWSGQEAIWQRVYLALGLTQAEINEFFTGPAFLAWGRMGNLHTWDGPLPPSWHIKQLYLQHRVLDQMRSFGMTPVLPAFAGHVPEAVTRVFPQVNVTKMGSWGHFNCSYSCSFLLAPEDPIFPIIGSLFLRELIKEFGTDHIYGADTFNEMQPPSSEPSYLAAATTAVYEAMTAVDTEAVWLLQGWLFQHQPQFWGPAQIRAVLGAVPRGRLLVLDLFAESQPVYTRTASFQGQPFIWCMLHNFGGNHGLFGALEAVNGGPEAARLFPNSTMVGTGMAPEGISQNEVVYSLMAELGWRKDPVPDLAAWVTSFAARRYGVSHPDAGAAWRLLLRSVYNCSGEACRGHNRSPLVRRPSLQMNTSIWYNRSDVFEAWRLLLTSAPSLATSPAFRYDLLDLTRQAVQELVSLYYEEARSAYLSKELASLLRAGGVLAYELLPALDEVLASDSRFLLGSWLEQARAAAVSEAEADFYEQNSRYQLTLWGPEGNILDYANKQLAGLVANYYTPRWRLFLEALVDSVAQGIPFQQHQFDKNVFQLEQAFVLSKQRYPSQPRGDTVDLAKKIFLKYYPRWVAGSWGAPGGGGGAAAAAGGGGGGAPGGGGGAAAAAGGGGGGAPGGGGGAAAAAGGGGGGAPLCGGELVDTLQFVCGDRGFYFSRPASRVSRRSRGIVEECCFRSCDLALLETYCATPAKSE	binds	
Naglu-Kif (enzyme, mostly high mannose glycans (produced with Kifunensine in the medium); N-glycans at N261, N272, N435, N503, N526 and N532 (precursor numbering), This is the protein that was crystallised (2.4 A)) DEAREAAAVRALVARLLGPGPAADFSVSVERALAAKPGLDTYSLGGGGAARVRVRGSTGVAAAAGLHRYLRDFCGCHVAWSGSQLRLPRPLPAVPGELTEATPNRYRYYQNVCTQSYSFVWWDWARWEREIDWMALNGINLALAWSGQEAIWQRVYLALGLTQAEINEFFTGPAFLAWGRMGNLHTWDGPLPPSWHIKQLYLQHRVLDQMRSFGMTPVLPAFAGHVPEAVTRVFPQVNVTKMGSWGHFNCSYSCSFLLAPEDPIFPIIGSLFLRELIKEFGTDHIYGADTFNEMQPPSSEPSYLAAATTAVYEAMTAVDTEAVWLLQGWLFQHQPQFWGPAQIRAVLGAVPRGRLLVLDLFAESQPVYTRTASFQGQPFIWCMLHNFGGNHGLFGALEAVNGGPEAARLFPNSTMVGTGMAPEGISQNEVVYSLMAELGWRKDPVPDLAAWVTSFAARRYGVSHPDAGAAWRLLLRSVYNCSGEACRGHNRSPLVRRPSLQMNTSIWYNRSDVFEAWRLLLTSAPSLATSPAFRYDLLDLTRQAVQELVSLYYEEARSAYLSKELASLLRAGGVLAYELLPALDEVLASDSRFLLGSWLEQARAAAVSEAEADFYEQNSRYQLTLWGPEGNILDYANKQLAGLVANYYTPRWRLFLEALVDSVAQGIPFQQHQFDKNVFQLEQAFVLSKQRYPSQPRGDTVDLAKKIFLKYYPRWVAGSW		binds
recombinant human Naglu (enzyme, glycosylated; lacks mannose-6-phosphate glycan, also called rhNaglu; alpha-N-acetyl-glucosaminidase) DEAREAAAVRALVARLLGPGPAADFSVSVERALAAKPGLDTYSLGGGGAARVRVRGSTGVAAAAGLHRYLRDFCGCHVAWSGSQLRLPRPLPAVPGELTEATPNRYRYYQNVCTQSYSFVWWDWARWEREIDWMALNGINLALAWSGQEAIWQRVYLALGLTQAEINEFFTGPAFLAWGRMGNLHTWDGPLPPSWHIKQLYLQHRVLDQMRSFGMTPVLPAFAGHVPEAVTRVFPQVNVTKMGSWGHFNCSYSCSFLLAPEDPIFPIIGSLFLRELIKEFGTDHIYGADTFNEMQPPSSEPSYLAAATTAVYEAMTAVDTEAVWLLQGWLFQHQPQFWGPAQIRAVLGAVPRGRLLVLDLFAESQPVYTRTASFQGQPFIWCMLHNFGGNHGLFGALEAVNGGPEAARLFPNSTMVGTGMAPEGISQNEVVYSLMAELGWRKDPVPDLAAWVTSFAARRYGVSHPDAGAAWRLLLRSVYNCSGEACRGHNRSPLVRRPSLQMNTSIWYNRSDVFEAWRLLLTSAPSLATSPAFRYDLLDLTRQAVQELVSLYYEEARSAYLSKELASLLRAGGVLAYELLPALDEVLASDSRFLLGSWLEQARAAAVSEAEADFYEQNSRYQLTLWGPEGNILDYANKQLAGLVANYYTPRWRLFLEALVDSVAQGIPFQQHQFDKNVFQLEQAFVLSKQRYPSQPRGDTVDLAKKIFLKYYPRWVAGSW	binds	

From patent US20220133863A1 (SHIRE HUMAN GENETIC THERAPIES, published 2022)
